Data as given in article PMC3817407.

T1: ECF01_3473
T1 chain: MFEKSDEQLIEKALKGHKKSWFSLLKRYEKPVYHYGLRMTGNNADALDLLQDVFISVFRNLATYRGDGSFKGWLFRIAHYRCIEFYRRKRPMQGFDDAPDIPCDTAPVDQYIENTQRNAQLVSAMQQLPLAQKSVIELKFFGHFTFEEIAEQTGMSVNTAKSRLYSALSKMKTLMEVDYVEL

T2: ECF28_1088
T2 chain: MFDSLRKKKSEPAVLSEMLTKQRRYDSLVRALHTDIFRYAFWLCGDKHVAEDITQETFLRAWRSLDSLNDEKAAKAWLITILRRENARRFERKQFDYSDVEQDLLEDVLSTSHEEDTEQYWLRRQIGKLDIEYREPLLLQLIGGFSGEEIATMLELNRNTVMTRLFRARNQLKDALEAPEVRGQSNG

T3: ECF17_1458
T3 chain: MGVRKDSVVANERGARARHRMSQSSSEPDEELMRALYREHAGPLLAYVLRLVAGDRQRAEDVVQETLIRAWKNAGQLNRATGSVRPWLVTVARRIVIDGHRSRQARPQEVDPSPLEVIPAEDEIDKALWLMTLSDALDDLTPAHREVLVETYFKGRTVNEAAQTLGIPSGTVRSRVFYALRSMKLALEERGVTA

T4: ECF33_375
T4 chain: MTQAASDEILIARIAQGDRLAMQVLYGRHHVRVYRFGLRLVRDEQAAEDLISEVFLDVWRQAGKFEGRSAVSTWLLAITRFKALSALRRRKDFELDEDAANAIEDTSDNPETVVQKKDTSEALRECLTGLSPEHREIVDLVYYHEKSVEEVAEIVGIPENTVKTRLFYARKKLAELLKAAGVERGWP

T5: ECF28_1040
T5 chain: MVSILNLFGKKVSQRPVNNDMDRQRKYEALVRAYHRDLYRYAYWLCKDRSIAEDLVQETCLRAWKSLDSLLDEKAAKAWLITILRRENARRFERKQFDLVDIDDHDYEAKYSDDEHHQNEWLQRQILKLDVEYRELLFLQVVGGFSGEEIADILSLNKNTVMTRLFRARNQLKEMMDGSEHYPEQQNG

B1: AS27_1331 (protein)
chain: MSAADKDPDKHSADADPPLTVELLADLQAGLLDDATAARIRSRVRSDPQAQQILRALNRVRRDVAAMGADPAWGPAARPAVVDSISAALRSARPNSSPGAAHAARPHVHPVRMIAGAAGLCAVATAIGVGAVVDAPPPAPSAPTTAQHITVSKPAPVIPLSRPQVLDLLHHTPDYGPPGGPLGDPSRRTSCLSGLGYPASTPVLGAQPIDIDARPAVLLVIPADTPDKLAVFAVAPHCSAADTGLLASTVVPRA
B2: AS03_1198 (protein)
chain: MDKDFDFDNIGKRTPYRTPDNFFEETQRKILERTVDEQRKKRRLKRIIPTVIAVAAVLAGILFTPSLRYMNTDTPSASNILAVDKNNVTTDPVDKWIKELSDEELEELVSFSENDIFLN
B3: AS16_3622 (protein)
chain: MMKTDELISLLATAEGPVDRHALARRLGLALLAGLLGALLLTVALYGVRSDLAEVARTPLFWAKVALPTSLALLGLWLTQRLARPGVRGGALWGLLGVPLLLVWLGAAISLFGAPPEARADLIFGRTWRTCALNITLLSTPVFIAVFWALRGLAPTRLRQAGAAGGLLAGSTATLVYCLHCPEMGVPFWGLWYLLGMLVPTLLGAVLGPRLLRW
B4: AS22_4450 (protein)
chain: MELDDMKHAWQTLEQRLDQQAAQTGQLLGVVHEETVRSSLRPLWVAQTAQLLCALALAIVSARSWIPHTDQPVAVIGGVLLQAWCMALAISAMVQLQLLTQFNVAGPLLRTQHALARLRRWRTRVAPWLGVAFWVLWIAVADALWRALTGQTLPTDWLVLNLLVGVAGGIGTWLGFRRLQRAQHPWLERIDRAHAGTGVIRAERMLEEIARFQRD
B5: AS15_524 (protein)
chain: MNFGVEDMIEHVPMEDKRKGAAALDEARLRQQAIGVKLRQMFDEVVNEPVPDEFLAILRKAERPAGGE
B6: AS25_1645 (protein)
chain: MNESFSQRQTDGDRRRGGDLEMKKNHTSHQHHTDSETPMGHNFEQFQRLSAYFDGEATPAERKEIQHLLDTDPQVKQQYQQLRQLKQALQLLPIPTSISAQYLGQRVLARLRRSQLRTLSLWGSGAIAALFVAGVMGQMPRLNFDRFAKNDPDQQPTAALVETSPQGEEALVVALNRPVLQIPKLATTESP
B7: AS01_3473 (protein)
chain: MSNYDNAELLALWLEGKLTPKQRDEFEQRCIQDSQFAEQVDAAAMVKIGADDYSSSEVPQWNKAATFEPQQANNSGSWLSGVSLVTSALAIVLVLTGTQVTTSEGELRIRFGSGQSEQALVKLVDSKLDAFKQNQQDAFTLYAQTLQQQQSESASQLTNYLLSSSRKERREDFAELIKFVNQQRSDDQLFYARQLNQLQQDVYHDATGVALESIQQ
B8: AS04_1609 (protein)
chain: MNRTTEQRNAEVMKTIGLLDQMPRVEVDHLFRVRLMQRIEAMEVKKTSWSALPGGAFNPRLAFMALLLMLNIASALMLFMHGTPQATGSSGAIAESLTEDYGGPALSYYDDQTTIDR
B9: AS15_436 (protein)
chain: MAQSTEPKASPQEATAKGGDNTKGKSRKELQQQIDENLRRVYEEALVQEVPDRFAMLLDQLRQKGTGK
B10: AS14_1324 (protein)
chain: MSGSRPEPEGHLAEQHLGDRLSALVDGELGHDARERVLAHVATCPKCKAEVDAQRRLKNVFAEAAPPAPSESFLARLQGLPGGGDSDGGGSPFSGLPGGFGASAASGVFGPRRDERFEFDYVPAGSHTPVLPSATSGRGFRIHEVGRHESDRSASRGLRFAFAAAGAVSLAAIALGGVTLGTPDTTTEARGSGSGSNVTPLRTPGSAAATGSESQRRRTAGPLLGQGQRALGDLPVASTTASAPLLPGMPAPAGGDARQQAVRALTTPVTAGAAAMSPLIRPLEAVPPLSLSSWSAAPEVRPPGLLAAPDPAPSPYPAASPAASSSPLR
B11: AS16_973 (protein)
chain: MKTDDLIALLAAGEGPVPRHAVGRRMAVAALGGLTAALLLTITLYGVRSDITEVAQTPLFWGKVAFPTSLALIGLWLTSRLARPGGKGAAGWKMLGLPLLLVWCGAAVSIAGAPVDARADLLFGRTWRTCALNIALLSVPAFVTVFWALKGLAPTRLRLAGAAGGLLAGSSATVAYCLHCPEMGVPFWGVWYVLGMLVPTVLGAWWGPRMLRW
B12: AS25_1643_cl43 (protein)
chain: MTTDSNFNDPCRRQFSRDLPQKMARHTNEATGAMDMVKRDRFELLSAYLGGEVTAAERRQVEDWPANDVAVQRLYSRLLKLRQGIRTMPIPTAQQSPETTAEQVFAKVNRRSRLAWKLGGAAVAACVIGAVTNWLPGRQTGIPQLAQQPQEQPTQAVTTPDALPMIALNNPVIEIPKAAVASPTKFIQPQPQLGEIPPDIN
B13: AS22_1147 (protein)
chain: MELDDIAVAWRSLEQRLDQHAALAGQVLGDLRSHAARAHLRPLWLSQSAQLLCAIALSGLVAHSWLAFPEQAAAIVGGVLLQIWCVALAASAARQLWLLSQLDFARPLLQTQRALAQLRRWRTRVAPWLGVAFWVLWVAVADAAWRALTGRSLPYAWLLCNLLVGVLGGIGTWLGYRRLQRSGHPWLERLDTVHAGRSVARTETLLEQIARFQRE
B14: AS20_992 (protein)
chain: MTPERFVHLADAYGADLQRWPSAERAAAQALLDCGDAQAVAALRQAHWLDSQLDRYQVPAPSPALAQRIIAAAQQPGAPFWSRYAGWLASLGWVGVGLTGVAAGMLAVALSLPLSTSAEALPSVFDQSDAEFVLSINAEEAEQ
B15: AS11_987 (protein)
chain: MNKHPDNNLLEAYASGSIDAVSGLVVATHLETCSKCRAYVNQVEASQANTVSESPSEYSPEFDDMLNDIINAEPVNDNVVIQDTAFVNVAGKSFELPKTLVRFSDLVGSWRSYGGKVFSAQIDLGEDARVSLMYIGENVQIPQHTHRGLESTLVLHGGFSDEDGQYEEGDLMVRDASVKHSPFTQEGEDCLCLTVLTEPMIFTQGVARIFNLFGKGLYP
B16: AS03_1244 (protein)
chain: MKQFDPDVNIRPKEDSIRHYSVPDDYFASFTDKLMAQIPAVKEENTVVVPSVALWPKLRPLLYLAASFLLMIGMFKAFSLFGVGSDTGRTTSTSAGLVALDHGDTRWSEDTDYRDFLHDNCAETVSDEWVLTDFSE
B17: AS02_915 (protein)
chain: MEKTGQEWVSASVDGETDRQTLAELAADTDSHAKWQRYHLMGDAMRDELPQAMPLDLSARIAAALEDEPTILAPKVEREATQAPSRAVVVPFMRQLGQYGIAAAVALMAVVGVQNYQSTQDDAPLPVLNTRPLVGTATPVSLQTGPVANQNQGNANDQLLEQRRRINAYLQDHMLQQRLNTGAVVDDNSEVTPIPVNR

Assays:
ECF01_3473 = molecular target: T1, ECF01_3473
ECF28_1088 = molecular target: T2, ECF28_1088
ECF17_1458 = molecular target: T3, ECF17_1458
ECF33_375 = molecular target: T4, ECF33_375
ECF28_1040 = molecular target: T5, ECF28_1040

| Binder | fold repression (ECF01_3473) | fold repression (ECF28_1088) | fold repression (ECF17_1458) | fold repression (ECF33_375) | fold repression (ECF28_1040) |
| --- | --- | --- | --- | --- | --- |
| B1 | 2.69 | 1.37 | 2.79 | 4.75 | 1.5 |
| B2 | 2.38 | 1.24 | 0.894 | 0.909 | 1.23 |
| B3 | 2.63 | 2.18 | 4.75 | 1.17 | 3.02 |
| B4 | 1.32 | 1.18 | 1.23 | 1.4 | 1.4 |
| B5 | 9.89 | 3.64 | 9.33 | 4.38 | 4.67 |
| B6 | 7.11 | 3.89 | 7.18 | 3.29 | 2.95 |
| B7 | 13 | 1.59 | 1.83 | 1.13 | 2.3 |
| B8 | 4.75 | 0.742 | 3.13 | 3.16 | 1.03 |
| B9 | 4.77 | 2.98 | 5.96 | 2.28 | 4.28 |
| B10 | 8.34 | 3.46 | 7.16 | 3.42 | 4.3 |
| B11 | 0.602 | 1.04 | 1.11 | 0.373 | 1.39 |
| B12 | 2.75 | 1.48 | 2.2 | 0.709 | 1.09 |
| B13 | 3.03 | 2.19 | 2.2 | 1.26 | 1.78 |
| B14 | 2.3 | 2.27 | 1.5 | 1.04 | 2.12 |
| B15 | 4.16 | 1.97 | 2.13 | 1.99 | 2.02 |
| B16 | 2.13 | 1.36 | 1.62 | 1.51 | 1.68 |
| B17 | 5.57 | 2.38 | 2.74 | 2.44 | 2.03 |
